Results reported in patent US9012420B2, “Aptamer for chymase, and use thereof” (Ribomic Inc., priority 2009, dated 2015).

Assays:
chymase [1] = target: T1, chymase (Homo sapiens, UniProt P23946 P23946:22-247); assay: inhibition; Suc-AAPF-MCA, 37 C, solution C; settings: tags: recombinant, expressed in yeast, SIGMA
T1 sequence: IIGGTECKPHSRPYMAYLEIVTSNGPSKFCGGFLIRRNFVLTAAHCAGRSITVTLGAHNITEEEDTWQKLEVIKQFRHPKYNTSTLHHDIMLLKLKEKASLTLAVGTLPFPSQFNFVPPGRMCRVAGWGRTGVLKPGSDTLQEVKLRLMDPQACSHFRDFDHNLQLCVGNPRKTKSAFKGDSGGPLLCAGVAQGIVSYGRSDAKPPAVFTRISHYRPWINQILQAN
Experimental: Here, Suc is a protecting succinyl group, and MCA is a 4-methylcoumaryl-7-amide group; upon cleavage of the C-terminal side of phenylalanine, AMC (7-amino-4-methyl-coumarine) is released. By detecting the fluorescence of this AMC, the enzyme activity of chymase can be determined. The assay was performed using a 96-well plate (F16 Black Maxisorp Fluoronunc, manufactured by Nunc), with a reaction mixture volume of 100 μL, in solution C as a buffer solution. First, each nucleic acid was serially diluted to 0.0027-2 μM concentrations in solution C to obtain 50 μL solutions. After 10 μL of the 1 mM substrate prepared in solution C was added thereto, the plate was set to the microplate reader SpectraMax190 (manufactured by Molecular Devices Corporation), and incubated at 37° C. for 5 minutes. Separately, 0.05 μg (or 0.005 μg) of chymase (recombinant, manufactured by SIGMA) was diluted in solution C to obtain a 40 μL chymase solution, and incubated at 37° C. for 5 minutes. The chymase solution was added to the mixture of the nucleic acid and substrate to initiate an enzyme reaction. The final chymase concentration in the reaction mixture was 16.7 nM (or 1.67 nM), the final substrate concentration being 100 μM. The plate containing the reaction mixture was set to the microplate reader SpectraMax190 (manufactured by Molecular Devices Corporation), and examined for time-dependent changes in the fluorescence intensity at 37° C. for 5 minutes (or 30 minutes) (excitation wavelength 380 nm, detection wavelength 460 nm). A linear approximation of the increase in the fluorescence of the AMC released from the substrate by chymase activity was generated, and its slope was taken as the initial velocity […]. For control, samples were treated and analyzed in the same manner in two cases: use of a 30N or 40N (a nucleotide of 30 or 40 consecutive bases represented by N; N is A, G, C or T) nucleic acid pool (negative control), and use of chymostatin, a known chymotrypsin-like serine protease inhibitor (positive control). Taking the initial reaction velocity without the nucleic acid and inhibitor (V_0) as a 100% enzyme activity, the inhibitory rate of each test substance was calculated using the following equation: […]
The chymase inhibitory activity was measured in the same manner as in Example 3.

chymase [2] = target: T1, chymase; assay: inhibition; angiotensin I; recombinant 0.237; settings: tags: human skin mast cell, Calbiochem
chymase [3] = target: T1, chymase; assay: inhibition; angiotensin I; recombinant 0.119; settings: tags: human skin mast cell, Calbiochem
Experimental: (§1) The total volume of solution for an enzyme reaction in the assay was set to 50 μL, and the reaction was performed in solution C buffer. First, 0.3-0.75 ng of chymase (recombinant, (manufactured by SIGMA) or native (manufactured by Calbiochem)) was diluted with solution C to give 5 μL thereof. Here, the recombinant is chymase expressed by yeast, and the native is chymase purified from human skin mast cell. The nucleic acid was serially diluted with solution C at a concentration of 0.0027-2 μM to give 25 μL thereof. The chymase solution (5 μL) and the nucleic acid solution (25 μL) were mixed, and the mixture was incubated at 37° C. for 5 min. […] The whole mixture was centrifuged at 4° C., 14000 rpm for 10 min, and the supernatant (30 μL) was used for the next fluorescence induction reaction.
(§2) The above-mentioned supernatant (30 μL) was added to a 96 well plate (black, manufactured by Costar), a solution (15 μL) of 2% o-phthalaldehyde (manufactured by SIGMA) in methanol and 0.3M NaOH solution (170 μL) were added to each well, and the mixture was incubated at room temperature for 10 min. […] The plate was set on a microplate reader SpectraMax190 (manufactured by Molecular device) and the fluorescence intensity was measured at an excitation wavelength of 355 nm and a fluorescence wavelength of 460 nm.

chymase [4] = target: T1, chymase; assay: inhibition; angiotensin I; recombinant 0.326; settings: tags: human skin mast cell, Calbiochem
Experimental: as §1, §2

chymase [5] = target: T1, chymase; assay: inhibition; angiotensin I; recombinant 0.137; settings: tags: human skin mast cell, Calbiochem
chymase [6] = target: T1, chymase; assay: inhibition; angiotensin I; recombinant 0.080; settings: tags: human skin mast cell, Calbiochem
chymase [7] = target: T1, chymase; assay: inhibition; angiotensin I; recombinant 0.210; settings: tags: human skin mast cell, Calbiochem
Experimental: as §1, §2

chymase [8] = target: T1, chymase; assay: inhibition; angiotensin I; recombinant 0.085; settings: tags: human skin mast cell, Calbiochem
chymase [9] = target: T1, chymase; assay: inhibition; angiotensin I; recombinant 0.057; settings: tags: human skin mast cell, Calbiochem
chymase [10] = target: T1, chymase; assay: inhibition; angiotensin I; recombinant 0.039; settings: tags: human skin mast cell, Calbiochem
chymase [11] = target: T1, chymase; assay: inhibition; angiotensin I; recombinant 0.687; settings: tags: human skin mast cell, Calbiochem
Experimental: as §1, §2

chymase [12] = target: T1, chymase; assay: inhibition; angiotensin I; recombinant 0.328; settings: tags: human skin mast cell, Calbiochem
Experimental: as §1, §2

chymase [13] = target: T1, chymase; assay: inhibition; angiotensin I; recombinant 0.414; settings: tags: human skin mast cell, Calbiochem
Experimental: as §1, §2

chymase [14] = target: T1, chymase; assay: inhibition; angiotensin I; recombinant 0.377; settings: tags: human skin mast cell, Calbiochem
Experimental: as §1, §2

chymase [15] = target: T1, chymase; assay: inhibition; angiotensin I; recombinant 0.426; settings: tags: human skin mast cell, Calbiochem; label: 5' biotin
chymase [16] = target: T1, chymase; assay: inhibition; angiotensin I; recombinant 0.419; settings: tags: human skin mast cell, Calbiochem; label: 3' biotin
chymase [17] = target: T1, chymase; assay: inhibition; angiotensin I; recombinant 0.394; settings: tags: human skin mast cell, Calbiochem
Experimental: as §1, §2

chymase [18] = target: T1, chymase; assay: inhibition; angiotensin I; recombinant 0.153; settings: tags: human skin mast cell, Calbiochem
Experimental: as §1, §2

chymase [19] = target: T1, chymase; assay: inhibition; angiotensin I; recombinant 0.310; settings: tags: human skin mast cell, Calbiochem; label: 5' biotin
chymase [20] = target: T1, chymase; assay: inhibition; angiotensin I; recombinant 0.125; settings: tags: human skin mast cell, Calbiochem
Experimental: as §1, §2

chymase [21] = target: T1, chymase; assay: inhibition; angiotensin I; recombinant 0.289; settings: tags: human skin mast cell, Calbiochem
Experimental: as §1, §2

chymase [22] = target: T1, chymase; assay: inhibition; angiotensin I; recombinant 0.089; settings: tags: human skin mast cell, Calbiochem
Experimental: as §1, §2

chymase [23] = target: T1, chymase; assay: inhibition; angiotensin I; recombinant 0.078; settings: tags: human skin mast cell, Calbiochem
Experimental: as §1, §2

chymase [24] = target: T1, chymase; assay: inhibition; angiotensin I; recombinant 0.239; settings: tags: human skin mast cell, Calbiochem
Experimental: as §1, §2

chymase [25] = target: T1, chymase; assay: inhibition; angiotensin I; recombinant 0.161; settings: tags: human skin mast cell, Calbiochem
Experimental: as §1, §2

B1: 56(22) (ssRNA)
RNA: GGGUUAGAUAGAGUUAAAAACCC
modifications: 2'-F U and C; 2'-OMe 1-3,7,8,10,13,16-20; PS 5-6
Chymase [1]
  IC50: 52 nM
Chymase [2]
  IC50: 563 nM

B2: 56(23) (ssRNA)
RNA: GGGUUAGAUAGAGUUAAAAACCC
modifications: 2'-F U and C; 2'-OMe 1-3,7,8,10,13,16-20; PS 6-7
Chymase [1]
  IC50: 32 nM
Chymase [3]
  IC50: 360 nM

B3: 56(26) (ssRNA)
RNA: GGGUUAGAUAGAGUUAAAAACCC
modifications: 2'-F U and C; 2'-OMe 1-3,7,8,10,13,16-20; 5' and 3' idT
Chymase [4]
  IC50: 743 nM
Chymase [1]
  IC50: 54 nM

B4: 56(28) (ssRNA)
RNA: GGGUUAGAUAGAGUUAAAAACCC
modifications: 2'-F U and C; 2'-OMe 1-3,7,8,10,13,16-20; PS 6-7; 5' and 3' idT
Chymase [1]
  IC50: 44 nM
Chymase [5]
  IC50: 410 nM

B5: 56(29) (ssRNA)
RNA: GGGUUAGAUAGAGUUAAAAACCC
modifications: 2'-F U and C; 2'-OMe 1-3,7,8,10,13,16-20; PS 5-6,6-7; 5' and 3' idT
Chymase [1]
  IC50: 36 nM
Chymase [6]
  IC50: 366 nM

B6: 56(30) (ssRNA)
RNA: GGGUUAGAUAGAGUUAAAAACCC
modifications: 2'-F U and C; 2'-OMe 1-3,8,10,13,16-20; 5' and 3' idT
Chymase [1]
  IC50: 34 nM
Chymase [7]
  IC50: 521 nM

B7: 56(33) (ssRNA)
RNA: GGGUUAGAUAGAGUUAAAAACCC
modifications: 2'-F U and C; 2'-OMe 1-3,8,10,13,16-20; PS 6-7; 5' and 3' idT
Chymase [1]
  IC50: 35 nM
Chymase [8]
  IC50: 291 nM

B8: 56(34) (ssRNA)
RNA: GGGUUAGAUAGAGUUAAAAACCC
modifications: 2'-F U and C; 2'-OMe 1-3,7,10,13,16-20; PS 6-7; 5' and 3' idT
Chymase [1]
  IC50: 31 nM
Chymase [9]
  IC50: 162 nM

B9: 56(35) (ssRNA)
RNA: GGGUUAGAUAGAGUUAAAAACCC
modifications: 2'-F U and C; 2'-OMe 1-3,10,13,16-20; PS 6-7; 5' and 3' idT
Chymase [1]
  IC50: 24 nM
Chymase [10]
  IC50: 120 nM

B10: 56(42) (ssRNA)
RNA: GGGUUAGAUAGAGUUAAAAACCC
modifications: 2'-F U and C; 2'-OMe 1-3,7,8,10,13,16-20; 5' cholesterol; 3' idT
Chymase [1]
  IC50: 71 nM
Chymase [11]
  IC50: 601 nM

B11: 56(43) (ssRNA)
RNA: GGGUUAGAUAGAGUUAAAAACCC
modifications: 2'-F U and C; 2'-OMe 1-3,7,8,10,13,16-20; 5' peptide 1 (Phe-Cys, disulfide); 3' idT
Chymase [1]
  IC50: 35 nM
Chymase [12]
  IC50: 591 nM

B12: 56(44) (ssRNA)
RNA: GGGUUAGAUAGAGUUAAAAACCC
modifications: 2'-F U and C; 2'-OMe 1-3,7,8,10,13,16-20; 5' peptide 2 (Cys-Phe, disulfide); 3' idT
Chymase [1]
  IC50: 42 nM
Chymase [13]
  IC50: 643 nM

B13: 56(45) (ssRNA)
RNA: GGGUUAGAUAGAGUUAAAAACCC
modifications: 2'-F U and C; 2'-OMe 1-3,7,8,10,13,16-20; 5' idT; 3' PEG 40 kDa
Chymase [14]
  IC50: 303 nM
Chymase [1]
  IC50: 59 nM

B14: 56(46) (ssRNA)
RNA: GGGUUAGAUAGAGUUAAAAACCC
modifications: 2'-F U and C; 2'-OMe 1-3,7,8,10,13,16-20; 5' and 3' idT
Chymase [1]; label: 5' biotin
  IC50: 49 nM
Chymase [15]
  IC50: 742 nM

B15: 56(47) (ssRNA)
RNA: GGGUUAGAUAGAGUUAAAAACCC
modifications: 2'-F U and C; 2'-OMe 1-3,7,8,10,13,16-20; 5' and 3' idT
Chymase [1]; label: 3' biotin
  IC50: 37 nM
Chymase [16]
  IC50: 542 nM

B16: 56(48) (mixed)
RNA: GGGUUAGAUAGAGUUAAAAACCC
modifications: 2'-F U; 2'-OMe 1-3,7,8,10,13,16-20; DNA C21-C23; 5' and 3' idT
Chymase [1]
  IC50: 36 nM
Chymase [17]
  IC50: 621 nM

B17: 56(50) (mixed)
RNA: GGGUUAGAUAGAGUUAAAAACCC
modifications: 2'-F U and C; 2'-OMe 1-3,7,10,13,16-20; DNA A8; 5' and 3' idT
Chymase [1]
  IC50: 27 nM
Chymase [18]
  IC50: 325 nM

B18: 56(51) (mixed)
RNA: GGGUUAGAUAGAGUUAAAAACCC
modifications: 2'-F U and C; 2'-OMe 1-3,7,10,13,16-20; DNA A8; 5' and 3' idT
Chymase [1]; label: 5' biotin
  IC50: 29 nM
Chymase [19]
  IC50: 429 nM

B19: 69(1) (ssRNA)
RNA: AAAGGGUUAGAUAGAGUUAAAAACCC
modifications: 2'-F U and C; 2'-OMe 1-6,10,11,13,16,19-23; PS 9-10; 5' and 3' idT
Chymase [20]
  IC50: 480 nM
Chymase [1]
  IC50: 44 nM

B20: 69(2) (ssRNA)
RNA: AAAGGGUUAGAUAGAGUUAAAAACCC
modifications: 2'-F U and C; 2'-OMe 1-6,10,11,13,16,19-23; 5' and 3' idT
Chymase [21]
  IC50: 752 nM
Chymase [1]
  IC50: 48 nM

B21: 56(31) (ssRNA)
RNA: GGGUUAGAUAGAGUUAAAAACCC
modifications: 2'-F U and C; 2'-OMe 1-3,7,10,13,16-20; 5' and 3' idT
Chymase [22]
  IC50: 266 nM

B22: 56(32) (ssRNA)
RNA: GGGUUAGAUAGAGUUAAAAACCC
modifications: 2'-F U and C; 2'-OMe 1-3,10,13,16-20; 5' and 3' idT
Chymase [23]
  IC50: 185 nM

B23: SEQ 70 (mixed)
mixed: GGGTTAGAUAGAGUUAAAAACCC
modifications: 2'-F U and C; 2'-OMe 1-3,7,8,10,13,16-20; DNA T4,T5; 5' and 3' idT
Chymase [24]
  IC50: 478 nM

B24: SEQ 71 (mixed)
mixed: GGGUUAGAUAGAGTUAAAAACCC
modifications: 2'-F U and C; 2'-OMe 1-3,7,8,10,13,16-20; DNA T14; 5' and 3' idT
Chymase [25]
  IC50: 341 nM
